This note sets out measurements from patent US20160368985A1 (published 2016).

The assay deals with 7D8.RbIgG. In words: SPR (Biacore).

B1: CyFcRH5 (receptor)
chain: QFVRTYKSHFLQPPWTTVFRGERVNLTCKGFGFYSSQKTKWYYRHLGKEISRETQKNTLEVQESGEYRCQAQGSPLSSPVSLDFSSASLILQAPLSVFEGDSVVLRCRAKAEVTLKTTIYKNENVLAFLNKSTDFHISHASLKDNGAYRCTGYKETCCLVSSNTVKIQVQESFTRPVLRVSSFQPISGSPVTLTCETQLSLERSDVPLQFCFFRNDQMLGSGCSLSPKFRITAMWSKDSGSYWCKAATMCYDTTSNSLRSWIQVLIPASHPVLTLSPEKALNFEGTKVKLHCETQEDSLRTLYKFYHDGVPLRYKSVRCEKGASISFSLTTEHSGNYYCTADNGHGAKPSEAVSLSVTVPVSRPVLTLSSAEDLISEGAKLTLHCEAQRGSLPIVYQFHHENASLGNRSAHSAGGVAISFSLTADHSGNYYCTANNGFGPQRSEAVSLSITVPVSRPVLTLSSAEALTFEGATVTLYCEVQRGSPRILYQFYHEDVPLGSNSTPSVGKVSFSFSLTAAHSGNYYCTADNGFGPQRSEAVSLFVTVPVSRPILTLRVPRAQAVVGDLLELRCEALRGSPPIMYWFYHEDVTLGSSSVPSGGEASFNLSLTAEHSGNYSCEANNGLVAQHSDTISLSVIVPVSRPILTFRAPRAQAVVGDLLELHCEALRGSSPILYWFYHEDVTLGKISAPSGGGAYFNLSLTTEHSGIYSCEADNGLEAQRSEMVTLKVAVPVSRPVLTLRAPRAQVAVGDLLELHCEALRGSPLILYQFYHEDVTLGNSSALSGGAFFNLSLTAEHGNYSCEADNGLGAQRSETVTLYLTGLTENRSGPVATG
As to B1, the affinity, expressed as Kd, was 1.89 nM.
